# B1: FAP20-mRuby3 (His-tag cleaved) (natural protein, C. reinhardtii, UniProt A8IU92 1-190, looked up)
# chain: MFKNAFQSGFLSVLYSIGSKPLEIWDKQVSNGHIKRITDADIQSSVLEIMGQNVSTTYITCPADPNKTLGIKLPFLVLIIKNLNKYFSFEVQVLDDKNVRRRFRASNYQSTTRVKPFICTMPMRLDSGWNQIQFNLSDFTRRAYGTNYIETLRVQVHANCRIRRIYFSDRLYSEEELPAEFKLFLPIQKS
# Molecular target: PACRG-mNeonGreen-6xHis (C. reinhardtii, UniProt B1B601 1-307)
# Assay: pull-down
binder,measurement,value
B1,binding result,binds

# Source: publication doi:10.1101/2025.03.12.642377 (bioRxiv, 2025)
